Results reported in patent publication US20190367631A1 (Regeneron, published 2019).
Changes are numbered by the printed parent chain. In names and notes the source's numbering stands.

T1: human MSR1 extracellular domain expressed with a N-terminal nonahistidine tag (His9-hMSR1); R&D Systems, Cat … (human, UniProt P21757 77-451)
T1 construct: extracellular domain; Bought reagent; also called His-hMSR1; 9xHis-hMSR1
T1 sequence: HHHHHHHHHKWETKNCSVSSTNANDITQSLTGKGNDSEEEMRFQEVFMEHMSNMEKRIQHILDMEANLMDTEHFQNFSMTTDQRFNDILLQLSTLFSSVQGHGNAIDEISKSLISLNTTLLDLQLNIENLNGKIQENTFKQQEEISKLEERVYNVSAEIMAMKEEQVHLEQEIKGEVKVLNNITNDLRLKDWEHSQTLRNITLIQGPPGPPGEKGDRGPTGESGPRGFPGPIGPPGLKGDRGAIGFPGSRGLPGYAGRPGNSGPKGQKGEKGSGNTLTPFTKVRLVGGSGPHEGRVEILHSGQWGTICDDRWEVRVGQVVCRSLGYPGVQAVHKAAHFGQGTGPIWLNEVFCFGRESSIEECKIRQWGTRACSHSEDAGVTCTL

T2: full length human MSR1 with a C-terminal Myc tag, on HEK293.Myc.hMSR1 cells (human, UniProt P21757 1-451)
T2 sequence (looked up): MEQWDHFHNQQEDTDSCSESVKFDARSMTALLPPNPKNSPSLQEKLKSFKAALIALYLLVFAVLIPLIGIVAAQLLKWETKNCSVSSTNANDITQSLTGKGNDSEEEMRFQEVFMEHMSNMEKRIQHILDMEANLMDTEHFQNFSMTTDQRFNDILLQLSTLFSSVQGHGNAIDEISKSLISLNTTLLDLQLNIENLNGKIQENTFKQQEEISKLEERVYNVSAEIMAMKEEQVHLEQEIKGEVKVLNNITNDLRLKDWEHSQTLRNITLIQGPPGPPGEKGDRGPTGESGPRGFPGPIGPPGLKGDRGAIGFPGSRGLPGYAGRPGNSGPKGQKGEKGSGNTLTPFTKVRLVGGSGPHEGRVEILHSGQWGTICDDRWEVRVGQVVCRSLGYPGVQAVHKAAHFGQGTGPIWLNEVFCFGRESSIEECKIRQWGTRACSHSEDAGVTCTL

B1: H1H27749P-N297Q-LP1 (antibody, human IgG1, V domains shown)
VH: QVQLQESGPGLVKPSETLSLTCTVSDGSISSYYWSWIRQPPGRGLEWIGFIYYSGSTSYNPSLKSRVTISVDTSMSQFSLKLRSVTAADTAVYYCARGSPFDYWGPGTLVTVSS
VL: EIVLTQSPGTLSLSPGERATLSCRASQSVSSSYLAWYQQRPGQAPSLLISGASRRATGIPDRFSGSGSGTDFTLTIRRLEPEDFAMYYCQQYGSSPPTFGGGTKVEIKR
modifications: LXR agonist linker-payload LP1 clicked to azido-PEG3-amine on Q295 and Q297 (EU) of the heavy chain constant region
notes: antibody-drug conjugate; human IgG1 Fc with N297Q (EU); also called H1H27749P-LP1
B2: H1H27766P-N297Q-LP1 (antibody, human IgG1, V domains shown)
VH: EVQLVESGGGLVQPGGSLRLSCAASGFTFSSFAMSWVRQAPGKELEWVSSISGRGGSTYYADSVRGRFTISRDNSKITLYLQMNSLRAEDTAVYYCAKDIVFRYTSSAYWYFDLWGRGTLVTVSS
VL: not shown
modifications: LXR agonist linker-payload LP1 clicked to azido-PEG3-amine on Q295 and Q297 (EU) of the heavy chain constant region
notes: antibody-drug conjugate; human IgG1 Fc with N297Q (EU); also called H1H27766P2-LP1
B3: H1H27756P-N297Q (antibody, human IgG1, V domains shown)
VH: QVQLVESGGGVVQPGRSLRLSCAASGFTFSNYDMHWVRQAPGKGLEWMAVISYDGINKYYADSVKGRFTISRDNSKNTLYLQMNSLRAEDTAVYYCAKGTYSWYFDLWGRGTLVTVSS
VL: not shown
notes: human IgG1 Fc with N297Q (EU)
B4: H1H27756P-N297Q-LP1 (antibody, human IgG1, V domains shown)
VH: B3 VH
VL: not shown
modifications: LXR agonist linker-payload LP1 clicked to azido-PEG3-amine on Q295 and Q297 (EU) of the heavy chain constant region
notes: antibody-drug conjugate; human IgG1 Fc with N297Q (EU); also called H1H27756P-LP1
B5: H1H27747P-N297Q-LP1 (antibody, human IgG1, V domains shown)
VH: QVQLVESGGAVVQPGRSLRLSCAASGFTFSYYGMHWVRQAPGKGLEWVAVISYDGSKKYYADSVKGRFTISRDNSKNTLYLQMNSLRAEDTAVYYCAKDLTVDFYYGMDVWGQGTTVTVSS
VL: DIQMTQSPSSVSASVGDRVTITCRASQGISSWLAWYQQKPGKAPKLLIYATSSLQSGAPSRFSGSGSGTDFTLTISSLQPEDFATYFCQQANSFPYTFGQGTKLEIKR
modifications: LXR agonist linker-payload LP1 clicked to azido-PEG3-amine on Q295 and Q297 (EU) of the heavy chain constant region
notes: antibody-drug conjugate; human IgG1 Fc with N297Q (EU); also called H1H27747P-LP1
B6: H1H27760P-N297Q (antibody, human IgG1, V domains shown)
VH: EVQLVESGGGLVQPGRSLRLSCAASGFTFDAYAMHWVRQAPGKGLEWVSGISWNSGSIGYADSVKGRFTISRDNAKNSLYLQMNSLREEDTALYYCAKDKILELYYYGMDVWGQGTTVTVSS
VL: not shown
notes: human IgG1 Fc with N297Q (EU); also called H1H27760P2-N297Q
B7: H1H27760P-N297Q-LP1 (antibody, human IgG1, V domains shown)
VH: B6 VH
VL: not shown
modifications: LXR agonist linker-payload LP1 clicked to azido-PEG3-amine on Q295 and Q297 (EU) of the heavy chain constant region
notes: antibody-drug conjugate; human IgG1 Fc with N297Q (EU)
B8: H1H27762P-N297Q (antibody, human IgG1, V domains shown)
VH: QVQLVQSGAEVKKPGSSVKVSCKASGGTFSRYDISWVRQAPGQGLEWMGGIIPIFGTSNYAQKFQGRVTITTDESTSTVYMELSSLRSEDTAVYYCARGGRYGWFDPWGQGTLVTVSS
VL: not shown
notes: human IgG1 Fc with N297Q (EU); also called H1H27762P2-N297Q
B9: H1H27762P-N297Q-LP1 (antibody, human IgG1, V domains shown)
VH: B8 VH
VL: not shown
modifications: LXR agonist linker-payload LP1 clicked to azido-PEG3-amine on Q295 and Q297 (EU) of the heavy chain constant region
notes: antibody-drug conjugate; human IgG1 Fc with N297Q (EU); also called H1H27762P2-LP1
B10: H1xH29283P2 (antibody, V domains shown)
VH: B8 VH with A9T, D33T, I34F, S58T, A97T
VL: not shown
notes: the prefix H1xH is not explained; captured by anti-human Fc
B11: H1xH29282P2 (antibody, V domains shown)
VH: EVQLVESGGGLVQPGGSLRLSCAASGFTFSTYAMSWVRQAPGKGLEWVSTISGRSDITYFADSVKGRFTVSRDNSKTTLYLQMNSLRAEDTAVYYCATDDDLPLDYWGQGTLVTVSS
VL: not shown
notes: as for B10
B12: H1xH29273P2 (antibody, V domains shown)
VH: QVQLVESGGGVVQSGRSLRLSCAAAGFTFSNYGMHWVRQAPGKGLEWVALMSFDGSDKYYADSVKGRFTISRDNSKNTLYLQMNSLRAEDTALYYCAKGYDFWSGYWDYWGQGTLVTVSS
VL: not shown
notes: as for B10
B13: H1H27759P-N297Q (antibody, human IgG1, V domains shown)
VH: EVQLVESGGGFVQPGGSLRLSCAASGFTFSSYAMSWVRQAPGKGLEWVSAISGTGSNTYYADSVKGRFTISRDNSKNTLYLQMNSLRAEDTAVYYCAKDRVTTVTYYFDYWGQGTLVTVSS
VL: not shown
notes: human IgG1 Fc with N297Q (EU); also called H1H27759P2-N297Q
B14: H1H27759P-N297Q-LP1 (antibody, human IgG1, V domains shown)
VH: B13 VH
VL: not shown
modifications: LXR agonist linker-payload LP1 clicked to azido-PEG3-amine on Q295 and Q297 (EU) of the heavy chain constant region
notes: as for B7
B15: H1H27761P-N297Q (antibody, human IgG1, V domains shown)
VH: EVQLVESGGDLVQPGGSLRLSCSASGFTFNIYAMSWVRQAPGKGLEWVSGISGSGGSTYYADSVKGRFTISRDNSKNTLYFQMNSLRVEDTAVYYCAKKISSSSYYYYAMDVWGQGTTVTVSS
VL: not shown
notes: human IgG1 Fc with N297Q (EU); also called H1H27761P2-N297Q
B16: H1H27761P-N297Q-LP1 (antibody, human IgG1, V domains shown)
VH: B15 VH
VL: not shown
modifications: LXR agonist linker-payload LP1 clicked to azido-PEG3-amine on Q295 and Q297 (EU) of the heavy chain constant region
notes: as for B7
B17: H1H27751P-N297Q (antibody, human IgG1, V domains shown)
VH: EVQLVESGGGLVQPGGSLRLSCAASGFTFSNYAMHWVRQAPGKGLEYVSAISSNGGSTYYADSVKGRITISRDNSKNTLYLQMGSLRAEDMAVYYCARGRPYYYYFGMDVWGQGTTVTVSS
VL: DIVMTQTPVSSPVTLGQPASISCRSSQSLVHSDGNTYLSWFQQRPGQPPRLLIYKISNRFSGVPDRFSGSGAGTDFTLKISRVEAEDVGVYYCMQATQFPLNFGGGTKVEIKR
notes: human IgG1 Fc with N297Q (EU)
B18: H1H27751P-N297Q-LP1 (antibody, human IgG1, V domains shown)
VH: B17 VH
VL: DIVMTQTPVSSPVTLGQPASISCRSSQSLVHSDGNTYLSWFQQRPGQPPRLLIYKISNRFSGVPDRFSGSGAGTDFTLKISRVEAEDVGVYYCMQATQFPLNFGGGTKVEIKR
modifications: LXR agonist linker-payload LP1 clicked to azido-PEG3-amine on Q295 and Q297 (EU) of the heavy chain constant region
notes: as for B7
B19: H2aM21235N (antibody, mouse IgG2a, V domains shown)
VH: EVQLVESGGGLVQPGGSLRLSCAASGFTFSDHYMDWVRQAPGKGLEWVGRTRNKANSYTTEYAASVSGRFTISRDDSKNSLYLQMNSLKTEDTAVYYCTRAGIIGTLFDYWGQGTLVTVSS
VL: DIQMTQSPSSLSASVGDRVTITCRASQIIGRYLNWFQQKPGKVPKLLIYAASSLQRGVPSRFSGSGSGTDFTLTISSLQPEDFATYYCQQSYNTPPITFGQGTRLEIKR
B20: H2aM21227N (antibody, mouse IgG2a, V domains shown)
VH: QVQLVQSGAEVKKPGASVKVSCKVSGYTLTELSIHWVRQVPGKGLEWMGGFDPEEGETIFAQEFRDRVTLTEDTSPDTAYMELSSLKSEDAAVYYCTTPRYCNNGICYDYWGQGTLVTVSS
VL: DIQMTQSPSSLSASVGDRVTITCRASQSISNYLNWYQQKPGKAPKLLIYTASSLQSGVPSRFSGSGSGTDFTLTISSLQTEDFATYYCQQSYSNFPITFGQGTRLEIKR
B21: H1M21231N (antibody, V domains shown)
VH: B19 VH with Y58H, A63T, S67T, K78R, T99V
VL: B20 VL with S7F, N31S, Y32F, Y36F, L46F, T50A, T80P, N94S, F95P
B22: H2bM21234N (antibody, V domains shown)
VH: QVQLQESGPGLVKPSETLSLTCTVTGGSISRNYWSWIRQPPGKGLEWIGYIYYSGSIDYNPSLKSRVTISVDTSKNQFSLKLSSMTAADTAVYYCARDRWNWKYGMDVWGQGTTVIVSS
VL: EIVLTQSPGTLSLSPGERATLSCRASQTVRNNYLAWYHQKPGQAPRLLIYGASSRATGIPDRFSGSGSGTDFTLTISRLEPEDFTVYYCHQYGNSPWTFGQGTKMEIKR

These binders were tested against T1, human MSR1 extracellular domain … (assay: SPR Biacore T200, 25 C, antibody captured by anti-human Fc, His9-hMSR1 injected;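 note: running buffer HBS-ET pH 7.4, rates from sensorgrams fitted to a 1:1 model including mass transport limitation, KD and half-life derived from the kinetic constants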).
Throughout, for % Inhibition of Dil-Acetylated LDL uptake: test concentration or dose not given here.
Throughout, for % Inhibition of Dil-Oxidized LDL uptake: test concentration or dose not given here.

kon [M⁻¹ s⁻¹] | Kd [nM] | koff [s⁻¹] | t½ [min] | Binder
140000 | – | – | – | B1
416000 | 0.0649 | 2.7e-05 | 427 | B2
– | 1.65 | – | 97.4 | B3
62700 | 1.76 | 0.00011 | 105 | B4
136000 | 1.49 | 0.000203 | 56.9 | B5
– | 1.66 | – | 30.2 | B6
259000 | 1.67 | 0.000434 | 26.6 | B7
405000 | 1.38 | 0.00056 | 20.6 | B8
483000 | 1.29 | 0.000623 | 18.5 | B9
139000 | 13.4 | 0.00185 | 6.2 | B10
82800 | 43.7 | 0.00362 | 3.2 | B11
82000 | 93 | 0.00763 | 1.5 | B12
103000 | 4.23 | 0.000435 | 26.6 | B13
130000 | 4.57 | 0.000595 | 19.4 | B14
595000 | 0.609 | 0.000362 | 31.9 | B15
253000 | 2.02 | 0.000511 | 22.6 | B16
210000 | 0.833 | 0.000175 | 66.1 | B17
229000 | 0.664 | 0.000152 | 76.1 | B18

These binders were tested against T2, full length human MSR1 with a … (assay: cell-based or functional assay).

% Inhibition of Dil-Acetylated LDL uptake [%] | % Inhibition of Dil-Oxidized LDL uptake [%] | IC50 of Dil-Acetylated LDL uptake inhibition [nM] | IC50 of Dil-Oxidized LDL uptake inhibition [nM] | Binder
24 | 64 | > 100 | – | B19
62 | 90 | 3.7 | 3.1 | B20
50 | 79 | > 20 | 3.7 | B21
19 | 61 | 1.8 | 4.5 | B22
